Laboratory results from the supplement of paper PMC10567573.

B1: CPXM2 (parent)
chain: EILGCPLPDPNNYYHRRNEMTTTD
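Further: lentivirally expressed fusions sorted by FACS into six bins by GFP to DsRed ratio, PSI derived from sequencing read proportions per bin multiplied by bin number.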

Variants of: B1
Experiment: protein stability index of a GFP-peptide fusion (GPS, HEK-293T) (PSI 1-6); higher = more stable
Conditions: c terminus: a fixed tail appended
Variant EILGCPLPDPNNRYHRRNEMTTTD [Y13R] has a protein stability index of 4.04.
Variant EILGCPLPDPNNSYHRRNEMTTTD [Y13S] has a protein stability index of 3.86.
With EILGCPLPDPNNTYHRRNEMTTTD [Y13T] the protein stability index was 4.35.
Work on EILGCPLPDPNNVYHRRNEMTTTD [Y13V] yielded a protein stability index of 4.03.
EILGCPLPDPNNWYHRRNEMTTTD [Y13W] gave a protein stability index of 2.9.
For EILGCPLPDPNNYAHRRNEMTTTD [Y14A], the protein stability index was 4.18.
EILGCPLPDPNNYCHRRNEMTTTD [Y14C] showed a protein stability index of 4.04.
With EILGCPLPDPNNYDHRRNEMTTTD [Y14D] the protein stability index was 4.31.
With EILGCPLPDPNNYEHRRNEMTTTD [Y14E] the protein stability index was 4.59.
Work on EILGCPLPDPNNYFHRRNEMTTTD [Y14F] yielded a protein stability index of 3.69.
EILGCPLPDPNNYGHRRNEMTTTD [Y14G] showed a protein stability index of 4.13.
Work on EILGCPLPDPNNYHHRRNEMTTTD [Y14H] yielded a protein stability index of 3.84.
Variant EILGCPLPDPNNYIHRRNEMTTTD [Y14I] has a protein stability index of 3.46.
For EILGCPLPDPNNYKHRRNEMTTTD [Y14K], the protein stability index was 3.88.
EILGCPLPDPNNYLHRRNEMTTTD [Y14L] showed a protein stability index of 3.68.
Work on EILGCPLPDPNNYMHRRNEMTTTD [Y14M] yielded a protein stability index of 3.57.
EILGCPLPDPNNYNHRRNEMTTTD [Y14N] showed a protein stability index of 4.17.
EILGCPLPDPNNYPHRRNEMTTTD [Y14P] showed a protein stability index of 4.41.
With EILGCPLPDPNNYQHRRNEMTTTD [Y14Q] the protein stability index was 3.96.
With EILGCPLPDPNNYRHRRNEMTTTD [Y14R] the protein stability index was 3.92.
EILGCPLPDPNNYSHRRNEMTTTD [Y14S] gave a protein stability index of 4.38.
For EILGCPLPDPNNYTHRRNEMTTTD [Y14T], the protein stability index was 4.29.
For EILGCPLPDPNNYVHRRNEMTTTD [Y14V], the protein stability index was 3.81.
Work on EILGCPLPDPNNYWHRRNEMTTTD [Y14W] yielded a protein stability index of 3.75.
For EILGCPLPDPNNYYARRNEMTTTD [H15A], the protein stability index was 3.71.
Work on EILGCPLPDPNNYYCRRNEMTTTD [H15C] yielded a protein stability index of 2.71.
EILGCPLPDPNNYYDRRNEMTTTD [H15D] showed a protein stability index of 4.42.
In the case of EILGCPLPDPNNYYERRNEMTTTD [H15E], the protein stability index is reported as 3.62.
For EILGCPLPDPNNYYFRRNEMTTTD [H15F], the protein stability index was 3.33.
EILGCPLPDPNNYYGRRNEMTTTD [H15G] showed a protein stability index of 3.88.
With EILGCPLPDPNNYYIRRNEMTTTD [H15I] the protein stability index was 3.52.
In the case of EILGCPLPDPNNYYKRRNEMTTTD [H15K], the protein stability index is reported as 3.76.
Work on EILGCPLPDPNNYYLRRNEMTTTD [H15L] yielded a protein stability index of 3.21.
EILGCPLPDPNNYYMRRNEMTTTD [H15M] showed a protein stability index of 3.23.
EILGCPLPDPNNYYNRRNEMTTTD [H15N] gave a protein stability index of 3.68.
Variant EILGCPLPDPNNYYPRRNEMTTTD [H15P] has a protein stability index of 3.64.
Variant EILGCPLPDPNNYYQRRNEMTTTD [H15Q] has a protein stability index of 3.96.
Work on EILGCPLPDPNNYYRRRNEMTTTD [H15R] yielded a protein stability index of 3.31.
With EILGCPLPDPNNYYSRRNEMTTTD [H15S] the protein stability index was 3.56.
With EILGCPLPDPNNYYTRRNEMTTTD [H15T] the protein stability index was 3.76.
For EILGCPLPDPNNYYVRRNEMTTTD [H15V], the protein stability index was 3.1.
With EILGCPLPDPNNYYWRRNEMTTTD [H15W] the protein stability index was 2.91.
EILGCPLPDPNNYYYRRNEMTTTD [H15Y] gave a protein stability index of 3.16.
EILGCPLPDPNNYYHARNEMTTTD [R16A] showed a protein stability index of 3.84.
EILGCPLPDPNNYYHCRNEMTTTD [R16C] gave a protein stability index of 3.15.
For EILGCPLPDPNNYYHDRNEMTTTD [R16D], the protein stability index was 3.98.
In the case of EILGCPLPDPNNYYHERNEMTTTD [R16E], the protein stability index is reported as 3.94.
EILGCPLPDPNNYYHFRNEMTTTD [R16F] gave a protein stability index of 2.71.
In the case of EILGCPLPDPNNYYHGRNEMTTTD [R16G], the protein stability index is reported as 4.
With EILGCPLPDPNNYYHHRNEMTTTD [R16H] the protein stability index was 3.56.
In the case of EILGCPLPDPNNYYHIRNEMTTTD [R16I], the protein stability index is reported as 3.21.
EILGCPLPDPNNYYHKRNEMTTTD [R16K] showed a protein stability index of 3.52.
Work on EILGCPLPDPNNYYHLRNEMTTTD [R16L] yielded a protein stability index of 3.28.
For EILGCPLPDPNNYYHMRNEMTTTD [R16M], the protein stability index was 3.48.
EILGCPLPDPNNYYHNRNEMTTTD [R16N] showed a protein stability index of 3.82.
Variant EILGCPLPDPNNYYHPRNEMTTTD [R16P] has a protein stability index of 3.55.
For EILGCPLPDPNNYYHQRNEMTTTD [R16Q], the protein stability index was 4.03.
Work on EILGCPLPDPNNYYHSRNEMTTTD [R16S] yielded a protein stability index of 4.14.
In the case of EILGCPLPDPNNYYHTRNEMTTTD [R16T], the protein stability index is reported as 3.48.
EILGCPLPDPNNYYHVRNEMTTTD [R16V] gave a protein stability index of 3.19.
In the case of EILGCPLPDPNNYYHWRNEMTTTD [R16W], the protein stability index is reported as 2.76.
EILGCPLPDPNNYYHYRNEMTTTD [R16Y] showed a protein stability index of 2.83.
EILGCPLPDPNNYYHRANEMTTTD [R17A] gave a protein stability index of 3.78.
Variant EILGCPLPDPNNYYHRCNEMTTTD [R17C] has a protein stability index of 2.98.
With EILGCPLPDPNNYYHRDNEMTTTD [R17D] the protein stability index was 4.64.
Variant EILGCPLPDPNNYYHRENEMTTTD [R17E] has a protein stability index of 4.43.
EILGCPLPDPNNYYHRFNEMTTTD [R17F] showed a protein stability index of 2.48.
EILGCPLPDPNNYYHRGNEMTTTD [R17G] gave a protein stability index of 3.79.
Variant EILGCPLPDPNNYYHRHNEMTTTD [R17H] has a protein stability index of 3.3.
Variant EILGCPLPDPNNYYHRINEMTTTD [R17I] has a protein stability index of 3.35.
Work on EILGCPLPDPNNYYHRKNEMTTTD [R17K] yielded a protein stability index of 3.62.
Variant EILGCPLPDPNNYYHRLNEMTTTD [R17L] has a protein stability index of 2.7.
For EILGCPLPDPNNYYHRMNEMTTTD [R17M], the protein stability index was 3.8.
Variant EILGCPLPDPNNYYHRNNEMTTTD [R17N] has a protein stability index of 4.04.
For EILGCPLPDPNNYYHRPNEMTTTD [R17P], the protein stability index was 4.15.
EILGCPLPDPNNYYHRQNEMTTTD [R17Q] gave a protein stability index of 4.02.
Work on EILGCPLPDPNNYYHRSNEMTTTD [R17S] yielded a protein stability index of 3.88.
Work on EILGCPLPDPNNYYHRTNEMTTTD [R17T] yielded a protein stability index of 4.19.
Variant EILGCPLPDPNNYYHRVNEMTTTD [R17V] has a protein stability index of 3.22.
In the case of EILGCPLPDPNNYYHRWNEMTTTD [R17W], the protein stability index is reported as 2.63.
In the case of EILGCPLPDPNNYYHRYNEMTTTD [R17Y], the protein stability index is reported as 2.85.
EILGCPLPDPNNYYHRRAEMTTTD [N18A] gave a protein stability index of 3.3.
With EILGCPLPDPNNYYHRRCEMTTTD [N18C] the protein stability index was 3.59.
In the case of EILGCPLPDPNNYYHRRDEMTTTD [N18D], the protein stability index is reported as 4.23.
With EILGCPLPDPNNYYHRREEMTTTD [N18E] the protein stability index was 4.01.
In the case of EILGCPLPDPNNYYHRRFEMTTTD [N18F], the protein stability index is reported as 2.41.
Variant EILGCPLPDPNNYYHRRGEMTTTD [N18G] has a protein stability index of 3.77.
For EILGCPLPDPNNYYHRRHEMTTTD [N18H], the protein stability index was 3.37.
In the case of EILGCPLPDPNNYYHRRIEMTTTD [N18I], the protein stability index is reported as 2.79.
With EILGCPLPDPNNYYHRRKEMTTTD [N18K] the protein stability index was 3.57.
For EILGCPLPDPNNYYHRRLEMTTTD [N18L], the protein stability index was 2.51.
With EILGCPLPDPNNYYHRRMEMTTTD [N18M] the protein stability index was 2.91.
Work on EILGCPLPDPNNYYHRRPEMTTTD [N18P] yielded a protein stability index of 3.21.
EILGCPLPDPNNYYHRRQEMTTTD [N18Q] gave a protein stability index of 3.7.
